{"source": "paper PMC11461981", "about": "(Scientific Reports, 2024)", "key": {"14-3-3φ": {"biological_target": "14-3-3φ (Arabidopsis thaliana, UniProt P19456+P46077)", "sequence (P46077 whole entry, other chains not shown)": "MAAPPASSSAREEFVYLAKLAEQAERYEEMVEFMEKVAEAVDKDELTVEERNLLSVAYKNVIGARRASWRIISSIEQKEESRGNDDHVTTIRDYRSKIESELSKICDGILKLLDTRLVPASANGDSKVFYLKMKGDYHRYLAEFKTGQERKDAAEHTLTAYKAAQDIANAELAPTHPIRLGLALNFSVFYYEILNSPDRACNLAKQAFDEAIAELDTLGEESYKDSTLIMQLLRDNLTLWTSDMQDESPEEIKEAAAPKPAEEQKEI", "assay_type": "binding"}, "[1]": {"biological_target": "FAM-labeled phosphopeptide derived from C-terminal AHA2 (FAM-TPSHYpTV) (Arabidopsis thaliana)", "assay": "fluorescence polarisation"}, "[2]": {"biological_target": "FAM-labeled phosphopeptide derived from C-terminal AHA2 (FAM-TPSHYpTV) (Arabidopsis thaliana)", "assay": "fluorescence polarisation", "remark": "listed apart in the source"}, "[3]": {"biological_target": "FAM-labeled phosphopeptide derived from C-terminal AHA2 (FAM-TPSHYpTV) (Arabidopsis thaliana)", "assay": "fluorescence polarisation", "remark": "listed apart in the source"}, "[4]": {"biological_target": "FAM-labeled phosphopeptide derived from C-terminal AHA2 (FAM-TPSHYpTV) (Arabidopsis thaliana)", "assay": "fluorescence polarisation", "remark": "listed apart in the source"}}, "note": "Where two headings read alike, the source gives them in different places."}
{"compound": "C=CC(C)(C)OC[C@H]1O[C@H](O[C@@H]2C3=C([C@H](C)COC(C)=O)C[C@H](O)[C@]3(C)/C=C3/[C@@H](COC)CC[C@H]3[C@@H](C)[C@H]2O)[C@H](O)[C@@H](OC(C)=O)[C@@H]1O", "note": "[FC-A, Fusicoccin-A]", "values": [{"measurement": "Kd", "setting": "14-3-3φ", "result": "150 ± 30", "unit": "nM"}]}
{"compound": "recombinant Arabidopsis thaliana His-14-3-3φ (from UniProt P46077 1-267) (natural protein)", "values": [{"measurement": "Kd", "setting": "[1]", "result": 890, "unit": "nM"}, {"measurement": "Kd", "setting": "[2]", "result": 150, "unit": "nM"}, {"measurement": "Kd", "setting": "[3]", "result": 530, "unit": "nM"}, {"measurement": "Kd", "setting": "[4]", "result": 160, "unit": "nM"}]}
